Measurements as given in the supplement of paper PMC10567573.

B1: HDAC6 (parent)
chain: QEGLLDRCVSFQARFAEKEELMLV

Variants of: B1
Test: protein stability index of a GFP-peptide fusion (GPS, HEK-293T) (PSI 1-6); higher = more stable
Settings: c terminus: a fixed tail appended
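Also: lentivirally expressed fusions sorted by FACS into six bins by GFP to DsRed ratio, PSI derived from sequencing read proportions per bin multiplied by bin number.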

Protein stability index: each site, then its substitutions
D6: K 2.69 | S 2.13 | G 1.74 | P 1.38 | R 2 | F 1.54 | A 2.45 | V 2.06 | I 1.69 | N 2.37 | W 2.38 | E 1.84 | H 2.09 | T 1.64
L4: I 1.79 | Q 1.99 | M 2.19 | T 1.91 | A 1.62 | D 1.75 | E 1.85 | H 1.44 | K 1.94 | V 1.9 | P 2.04 | N 2.06 | C 2.73 | W 1.5 | R 1.79
E17: I 1.58 | P 1.73 | K 1.72 | R 2.03 | W 1.02 | S 1.7 | A 2.05 | V 1.21 | C 1.73 | L 1.85 | D 2.14 | N 1.68 | M 1.4 | F 1.53 | H 1.49 | Q 2.05
G3: K 2.16 | C 2.3 | T 1.97 | L 1.64 | M 2.04 | V 1.4 | H 2.12 | N 2.93 | Q 2.01 | A 1.89 | Y 1.31 | D 2.12 | S 2.19 | R 2.01 | W 1.79 | E 2.54
V9: W 1.79 | L 1.74 | I 2.44 | Y 2.29 | T 2.07 | Q 2.7 | R 2 | K 2.34 | P 2.36 | N 2.58 | D 2.29 | A 1.71 | C 2.18 | E 2.35 | F 1.63
R14: I 2.35 | Y 2.24 | F 1.56 | S 1.9 | T 2.14 | P 1.97 | C 2.21 | G 2.07 | A 1.4 | K 2.06 | N 2.41
Q1: D 1.85 | E 2.51 | I 2.48 | N 1.91 | F 1.18 | Y 1.25 | R 1.63 | G 1.51 | C 1.39 | V 1.54 | M 1.94 | L 2.33 | P 2.13
M22: T 3.2 | E 4.27 | V 1.92 | A 2.93 | W 1.95 | S 3.43 | L 2.03 | F 1.88 | P 3.99 | K 3.31 | H 2.59 | C 3.01 | R 3.14 | Q 2.81
E19: A 1.76 | Q 1.67 | L 1.49 | V 1.49 | D 1.76 | H 2.14 | W 2.08 | C 1.63 | T 2.87
A13: L 1.38 | M 1.89 | G 1.85 | T 2.03 | H 2.59 | C 1.4 | D 2.44 | K 2.47 | R 1.93 | N 1.89 | Q 2.08 | S 1.57 | P 2.05 | E 1.31 | V 1.39
L21: Q 2.88 | M 2.14 | V 2.14 | R 3.06 | C 2.18 | D 4.3 | T 2.73 | Y 2.17 | F 1.98 | N 3.78 | K 3.17 | G 3.76 | E 3.16
C8: G 2.61 | K 2.45 | F 1.61 | S 2.44 | M 1.98 | N 1.9 | A 1.97 | P 1.87 | H 1.93 | Q 2.12 | L 1.57 | E 2.04 | V 2.17 | W 1.62
L5: E 3.01 | Q 1.56 | F 1.33 | Y 1.79 | A 1.87 | I 2.07 | K 1.72 | D 2.62 | W 1.58 | M 1.73 | V 2.06 | C 1.34 | R 1.78
E20: T 2.14 | M 1.37 | L 1.62 | H 2.52 | K 1.96 | R 1.69 | D 2.32 | N 1.84 | V 1.72 | S 2.24 | Y 1.67 | P 2.01
F11: M 2.17 | E 3.09 | C 3.17 | A 2.35 | Y 2.03 | T 2.83 | L 1.71 | W 1.75 | S 2.53 | G 2.43 | K 2.33 | Q 2.1 | I 2 | P 2.73 | N 2.93 | V 2.17
A16: L 1.07 | K 2.38 | V 1.5 | S 2.21 | I 2.31 | W 1.03 | P 2.11 | C 1.48 | M 1.87 | T 1.74 | N 1.97 | E 2.6 | R 2.62 | D 1.84 | G 1.62
K18: T 2.66 | N 1.77 | E 2.38 | A 1.98 | H 1.44 | Y 1.78 | F 2.51 | D 1.79 | C 2.17 | V 1.96 | G 1.63 | Q 2.17 | I 2.6 | P 2.07
S10: N 1.66 | H 1.75 | F 1.83 | T 2.31 | Q 2.1 | M 1.64 | I 1.77 | K 2.13 | W 1.86 | A 2.5 | D 2.19 | V 1.45
F15: S 2.9 | G 2.54 | N 3.04 | E 2.91 | D 3.55 | M 2.16 | H 2.4 | T 2.81 | Q 2.55 | I 1.56 | P 3.02 | L 2.23 | Y 1.62 | K 3.13
R7: A 2.74 | C 2.32 | M 1.92 | N 2.13 | E 1.93 | G 2.17 | W 1.83 | H 1.7 | Y 1.66 | Q 1.94 | K 1.43 | D 1.69 | L 2.69 | F 2.59 | P 2.56 | S 3.14 | V 1.71 | T 1.73
L23: C 2.59 | M 1.83 | N 3.82 | P 3.45 | K 3.55 | V 1.93 | G 3.93 | I 1.85 | A 3.4 | T 2.98 | W 1.89 | R 3.35 | H 2.57
Q12: H 2.81 | M 2.02 | L 1.52 | T 1.99 | F 1.69 | W 1.08 | P 2.47 | C 2.1 | G 2.77 | E 1.83 | S 1.6 | A 1.66 | R 1.58 | D 1.87
E2: S 2.5 | G 2.52 | D 1.83 | P 2.56 | L 1.69 | H 1.96 | V 2.44 | I 2.12 | Y 1.8 | K 1.94 | A 1.12 | T 2.14
V24: W 2.21 | R 3.31 | L 2.21 | M 2.05 | A 3.83 | S 3.59 | Q 3.76 | P 4.13 | C 2.63 | N 3.42 | F 1.85 | Y 2.27 | I 2.17 | K 3.74 | T 3.82 | D 4.32
